Source: patent publication US20260109761A1 (IP2IPO INNOVATIONS, published 2026)
Residue numbers refer to the chain shown, from its start.

B1: 51B12 parent (antibody, V domains shown)
VH: QVQLVESGGGVVQPGRSLRLSCAASGFTFSDYGMHWVRQAPGKGLEWVAYISSGGTTIYYADTVKGRFTISRDNSKNTLYLQMNSLRAEDTAVYYCARWTNLYAMDYWGQGTTVTVSS
VL: DIVLTQSPDSLAVSLGERATINCRASKSVSTSGYSYMHWYQQKPGQPPKFLIYLASNLESGVPDRFSGSGSGTDFTLTISSLQAEDVAVYYCQHSREVPYTFGGGTKVEIKR
notes: Fc null human IgG1 / human kappa
B2: H3_W99H_L2 (antibody, V domains shown)
VH: B1 VH with W99H
VL: B1 VL with L58K
notes: as for B1
B3: H2_T57H_L1 (antibody, V domains shown)
VH: B1 VH with T57H
VL: B1 VL with S32Q
notes: as for B1
B4: H2_Y60K_L1 (antibody, V domains shown)
VH: B1 VH with Y60K
VL: B1 VL with S32Q
notes: as for B1
B5: H2_T63Y_L1 (antibody, V domains shown)
VH: B1 VH with T63Y
VL: B1 VL with S32Q
notes: as for B1
B6: H3_W99H_VL-par (antibody, V domains shown)
VH: B1 VH with W99H
VL: B1 VL
notes: as for B1
B7: H2_T63Y_VL-par (antibody, V domains shown)
VH: B1 VH with T63Y
VL: B1 VL
notes: as for B1
B8: H2_T57H_VL-par (antibody, V domains shown)
VH: B1 VH with T57H
VL: B1 VL
notes: as for B1
B9: H2_Y60K_VL-par (antibody, V domains shown)
VH: B1 VH with Y60K
VL: B1 VL
notes: as for B1

Experiments:
huZIP12-ECD-GST [1] = biological target: T1, huZIP12-ECD-GST (human, UniProt Q504Y0 24-202); assay: SPR single cycle kinetics (Biacore): mAb captured on protein A, huZIP12-ECD-GST injected; mean±SD of the control runs
T1 construct: also called hZIP12-ECD-GST; human ZIP12-ECD-GST; not shown: glutathione S-transferase (GST) tag
Method: (§1) Single Cycle Kinetics (SCK) involves first capturing the mAb onto the protein A sensor surface and then sequentially injecting a series of concentrations of huZIP12-ECD-GST over the surface starting at the lowest concentration and ending with the highest concentration. The final concentration is followed by a dissociation phase where buffer only is passed across the surface followed by regeneration, where the remaining bound huZIP12-ECD-GST is removed from the surface by injection of a 10 mM Glycine pH 1.5 and 50 mM NaOH solution. The SCK is repeated for each monoclonal antibody providing duplicate data and the kinetics of each interaction is evaluated by the Biacore software.

huZIP12-ECD-GST [2] = biological target: T1, huZIP12-ECD-GST; assay: SPR single cycle kinetics, 2.34-600 nM huZIP12-ECD-GST, extended dissociation; re-test, lower concentrations, extended dissociation
Method: as §1
(§2) A selection of the higher affinity antibody variants were re-tested at a lower concentration series with an extended dissociation time with the objective of obtaining a better assessment of the binding kinetics. Referring now to FIG. 7, there are shown the data for the monoclonal antibodies that were re-tested to optimise the binding kinetic data. Once again, three antibody variants, H3_W99H_L1, H3_W99HL2 and H3_W99H_VL-par, all appear to have a higher affinity than the parent antibody. The on-rate (ka), off-rate (kd) and overall affinity measurement (KD) are all improved compared to the 51B12 VH_VL_par parent antibody.

huZIP12-ECD-GST [3] = biological target: T1, huZIP12-ECD-GST; assay: HTRF competition: unlabelled antibody against Tb-labelled 51B12-parent on hZIP12-ECD-GST, detected with anti-GST-XL665
Method: Homogeneous Time Resolved Fluorescence (HTRF) assays were used to analyse the antibodies. A checkerboard assay was performed to validate the binding of the terbium labeled-antibody with hZIP12-ECD-GST. Serial dilutions (starting at 1000 ng/ml, semi-log dilutions) of Terbium-labeled 51B12-parent were incubated with serial dilutions of hZIP12-ECD-GST (starting at 5000 ng/ml, semi-log dilutions) followed by incubation with anti-GST-XL665. After excitation (320 nm), emission signals were obtained and HTRF ratio was calculated (665 nm/615 nm, Panel A). Signal/background ratios (S/B) were calculated from the HTRF ratios (0 ng/ml hZIP12-ECD-GST as background signal) and plotted against the Tb-51B12-parent concentration. The combinations 500 ng/ml hZIP12-ECD-GST+50 ng Tb-Ab, 150 ng/ml hZIP12-ECD-GST+50 ng Tb-Ab and 50 ng/ml hZIP12-ECD-GST+50 ng Tb-Ab were chosen as range for the competition assay. For the HTRF assay, 150 ng/ml hZIP12-ECD-GST+30 ng/ml Tb-51B12 was selected.

huZIP12-ECD-GST [4] = biological target: T1, huZIP12-ECD-GST; assay: SPR single cycle kinetics (Biacore): mAb captured on protein A, huZIP12-ECD-GST injected at 2.34-600 nM, extended dissociation
Method: as §1, §2

huZIP12-ECD-GST [5] = biological target: T1, huZIP12-ECD-GST; assay: SPR single cycle kinetics, mAb captured on protein A, 3.12-800 nM huZIP12-ECD-GST
Method: as §1
(§3) Referring to FIG. 6, there are shown the kinetic parameters obtained for all antibody variants when screened with the 3.12 nM to 800 nM huZIP12-ECD-GST. […] Affinity.

huZIP12-ECD-GST [6] = biological target: T1, huZIP12-ECD-GST; assay: SPR single cycle kinetics (Biacore): mAb captured on protein A, huZIP12-ECD-GST injected at 3.12-800 nM
Method: as §1, §3

T1 sequence (Q504Y0 24-202): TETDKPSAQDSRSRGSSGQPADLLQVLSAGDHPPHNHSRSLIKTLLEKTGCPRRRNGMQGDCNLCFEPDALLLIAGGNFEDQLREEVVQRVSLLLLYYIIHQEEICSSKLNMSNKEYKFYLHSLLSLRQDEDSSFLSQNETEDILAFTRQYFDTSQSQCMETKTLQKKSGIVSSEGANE

Binder	Kd (huZIP12-ECD-GST [1]) [nM]	koff (huZIP12-ECD-GST [1]) [s⁻¹]	Kd (huZIP12-ECD-GST [2]) [nM]	IC50 (read off the curve) (huZIP12-ECD-GST [3]) [µg/mL]	Kd (huZIP12-ECD-GST [4]) [nM]	koff (huZIP12-ECD-GST [4]) [s⁻¹]	kon (huZIP12-ECD-GST [4]) [M⁻¹ s⁻¹]	Kd (huZIP12-ECD-GST [5]) [nM]	Kd (huZIP12-ECD-GST [6]) [nM]	koff (huZIP12-ECD-GST [6]) [s⁻¹]	kon (huZIP12-ECD-GST [6]) [M⁻¹ s⁻¹]
B1	0.969	2.66e-05	1.1	~0.2	1.09	3e-05	27500	–	–	–	–
B2	–	–	–	–	0.339	3.16e-05	93100	~0.5	0.472	3.98e-05	84300
B3	–	–	–	–	0.971	4.18e-05	43100	–	0.743	3.3e-05	44400
B4	–	–	–	–	0.604	2.25e-05	37200	–	0.957	3.7e-05	38600
B5	–	–	–	–	1.34	3.68e-05	27500	–	1.07	3.16e-05	29600
B6	–	–	–	–	0.322	3.29e-05	102000	~0.5	0.481	4.67e-05	97100
B7	–	–	–	–	0.868	2.51e-05	28900	–	1.03	3.04e-05	29600
B8	–	–	–	–	0.792	3.3e-05	41600	–	0.791	3.47e-05	43900
B9	–	–	–	–	0.829	3.26e-05	39400	–	1.09	4.01e-05	36700
